# From patent publication US7183387 (Genentech, dated 2007)
# Numbering of substitutions follows the chain as printed. Names may count otherwise.
# B1: anti-IgE E27 IgG1 Asp265Asn (antibody)
# heavy: not shown
# light: DIQLTQSPSSLSASVGDRVTITCRASKPVDGEGDSYLNWYQQKPGKAPKLLIYAASYLESGVPSRFSGSGSGTDFTLTISSLQPEDFATYYCQQSHEDPYTFGQGTKVEIKRTVAAPSVFIFPPSDEQLKSGTASVVCLLNNFYPREAKVQWKVDNALQSGNSQESVTEQDSKDSTYSLSSTLTLSKADYEKHKVYACEVTHQGLSSPVTKSFNRGEC
# B2: anti-IgE E27 IgG1 Asp265Glu (antibody)
# heavy: not shown
# light: B1 light
# B3: anti-IgE E27 IgG1 Asp270Asn (antibody)
# heavy: not shown
# light: B1 light
# B4: anti-IgE E27 IgG1 Gln419 changed to Ala (antibody)
# heavy: not shown
# light: B1 light
# notes: named only by its position
# B5: anti-IgE E27 IgG1 Lys322Ala (antibody)
# heavy: not shown
# light: B1 light
# notes: also called K322A
# B6: anti-IgE E27 IgG1 Lys414Ala (antibody)
# heavy: not shown
# light: B1 light
# B7: anti-IgE E27 IgG1 Pro329Ala (antibody)
# heavy: not shown
# light: B1 light
# notes: also called P329A
# B8: anti-IgE E27 IgG1 Pro331Ala (antibody)
# heavy: not shown
# light: B1 light
# notes: also called P331A
# B9: anti-IgE E27 IgG1 Ser298Asn (antibody)
# heavy: not shown
# light: B1 light
# B10: E27 IgG1 variant E380(405)A/L309(328)A (antibody)
# heavy: not shown
# light: B1 light
# notes: also called IG2 271
# B11: E27 IgG1 variant E380(405)A/N434(465)A (antibody)
# heavy: not shown
# light: B1 light
# notes: also called IG2 269
# B12: anti-IgE E27 IgG1 variant Ser298Ala (antibody)
# heavy: not shown
# light: B1 light
# notes: also called S317A
# Legend:
# [1] = target: T1, human FcγRIIA-Arg131 α subunit extracellular domain-His6-GST fusion (human, UniProt P12318 34-217); assay: hexamer ELISA
# T1 construct: extracellular domain; also called FcγRIIA-R131; not shown: glutathione S transferase (GST)
# T1 sequence: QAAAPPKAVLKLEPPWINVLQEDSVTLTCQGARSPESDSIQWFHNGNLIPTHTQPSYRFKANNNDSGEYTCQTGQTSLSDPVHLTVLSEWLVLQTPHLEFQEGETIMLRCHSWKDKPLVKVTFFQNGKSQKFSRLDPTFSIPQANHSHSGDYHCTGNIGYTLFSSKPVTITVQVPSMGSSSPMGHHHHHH
# [2] = target: T2, human FcγRIIIA-Phe158 α subunit extracellular domain-His6-GST fusion (human, UniProt P08637 17-208); assay: hexamer ELISA
# T2 construct: extracellular domain; also called FcγRIIIA-F158; CD16; not shown: glutathione S transferase (GST)
# T2 sequence (P08637 other isoform, or with tags, fused parts or gaps): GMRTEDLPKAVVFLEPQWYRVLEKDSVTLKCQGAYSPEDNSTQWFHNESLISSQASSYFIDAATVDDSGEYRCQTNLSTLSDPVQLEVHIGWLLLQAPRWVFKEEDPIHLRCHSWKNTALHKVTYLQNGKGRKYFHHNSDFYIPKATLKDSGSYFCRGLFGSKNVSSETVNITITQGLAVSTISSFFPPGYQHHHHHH
# [3] = target: T3, human FcγRIIB α subunit extracellular domain-His6-GST fusion (human, UniProt P31994 43-217); assay: hexamer ELISA
# T3 construct: extracellular domain; also called CD32; not shown: glutathione S transferase (GST)
# T3 sequence: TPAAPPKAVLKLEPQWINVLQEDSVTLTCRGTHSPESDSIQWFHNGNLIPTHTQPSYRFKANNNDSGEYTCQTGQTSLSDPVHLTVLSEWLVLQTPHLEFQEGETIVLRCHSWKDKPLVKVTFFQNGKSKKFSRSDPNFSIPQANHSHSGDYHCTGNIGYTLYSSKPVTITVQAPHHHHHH
# [4] = target: T1, human FcγRIIA-Arg131 α subunit …; assay: immune complex ELISA, E27 background
# [5] = target: T2, human FcγRIIIA-Phe158 α subunit …; assay: immune complex ELISA, E27 background
# [6] = target: T3, human FcγRIIB α subunit extracellular …; assay: immune complex ELISA, E27 background
# [7] = target: T4, human neonatal Fc receptor (FcRn), biotinylated (human, UniProt P55899 24-297; P61769 21-119, biotinylated (biotin-X-NHS)); assay: FcRn ELISA, pH 6.0;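 note: Streptavidin-captured FcRn plates, IgG variants titrated 2 h at pH 6.0, peroxidase anti-human IgG read at 450 nm, variant over standard concentration at the standard curve mid-point absorbance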
# T4 construct: captured on streptavidin plates
# T4 sequence (P55899 24-297 limits assumed, chain 1 of 2): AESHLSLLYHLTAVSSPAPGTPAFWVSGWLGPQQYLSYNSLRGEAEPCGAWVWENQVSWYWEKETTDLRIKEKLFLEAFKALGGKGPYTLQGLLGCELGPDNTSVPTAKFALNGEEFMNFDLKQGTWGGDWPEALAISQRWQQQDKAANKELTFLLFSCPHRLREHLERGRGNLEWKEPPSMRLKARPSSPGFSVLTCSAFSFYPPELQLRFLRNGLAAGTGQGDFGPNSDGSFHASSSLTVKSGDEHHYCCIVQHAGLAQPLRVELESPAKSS
# T4 sequence (P61769 21-119 limits assumed, chain 2 of 2): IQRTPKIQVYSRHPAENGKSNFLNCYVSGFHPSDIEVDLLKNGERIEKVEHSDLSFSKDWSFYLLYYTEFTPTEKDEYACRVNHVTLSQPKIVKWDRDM
# Description: (§1) FcRn Binding ELISA: For measuring FcRn binding activity of IgG variants, ELISA plates were coated with 2 µg/ml streptavidin (Zymed, South San Francisco) in 50 mM carbonate buffer, pH 9.6, at 4° C. overnight and blocked with PBS-0.5% BSA, pH 7.2 at room temperature for one hour. Biotinylated FcRn (prepared using biotin-X-NHS from Research Organics, Cleveland, Ohio and used at 1–2 µg/ml) in PBS-0.5% BSA, 0.05% polysorbate 20, pH 7.2, was added to the plate and incubated for one hour. Two fold serial dilutions of IgG standard (1.6–100 ng/ml) or variants in PBS-0.5% BSA, 0.05% polysorbate 20, pH 6.0, were added to the plate and incubated for two hours. Bound IgG was detected using peroxidase labeled goat F(ab')_2 anti-human IgG F(ab')_2 in the above pH 6.0 buffer (Jackson ImmunoResearch, West Grove, Pa.) followed by 3,3',5,5'-tetramethyl benzidine (Kirgaard & Perry Laboratories) as the substrate. Plates were washed between steps with PBS-0.05% TWEEN 20® at either pH 7.2 or 6.0. Absorbance was read at 450 nm on a Vmax plate reader (Molecular Devices, Menlo Park, Calif.). Titration curves were fit with a four-parameter nonlinear regression curve-fitting program (KaleidaGraph, Synergy software, Reading, Pa.). Concentrations of IgG variants corresponding to the mid-point absorbance of the titration curve of the standard were calculated and then divided by the concentration of the standard corresponding to the mid-point absorbance of the standard titration curve.
# [8] = target: T1, human FcγRIIA-Arg131 α subunit …; assay: hexamer ELISA; remark: listed apart in the source
# [9] = target: T2, human FcγRIIIA-Phe158 α subunit …; assay: hexamer ELISA; remark: listed apart in the source
# [10] = target: T3, human FcγRIIB α subunit extracellular …; assay: hexamer ELISA; remark: listed apart in the source
# [11] = target: T5, human FcγRIA α subunit extracellular domain-His6-GST fusion (human, UniProt P12314 16-292); assay: FcγRI ELISA, E27 background
# T5 construct: extracellular domain; also called GST-FcγRIA; CD64; not shown: glutathione S transferase (GST)
# T5 sequence (P12314 other isoform, or with tags, fused parts or gaps): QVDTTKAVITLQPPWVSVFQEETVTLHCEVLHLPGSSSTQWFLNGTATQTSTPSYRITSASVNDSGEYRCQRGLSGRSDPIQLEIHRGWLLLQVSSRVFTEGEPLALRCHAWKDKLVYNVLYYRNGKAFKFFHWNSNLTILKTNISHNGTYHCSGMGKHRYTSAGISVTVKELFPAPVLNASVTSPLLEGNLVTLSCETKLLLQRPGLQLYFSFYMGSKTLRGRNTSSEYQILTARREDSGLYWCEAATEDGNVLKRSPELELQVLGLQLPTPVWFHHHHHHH
# [12] = target: T5, human FcγRIA α subunit extracellular …; assay: FcγRI ELISA and THP-1 cells, averaged
# [13] = target: T6, human FcγRIIIA-F158 α subunit extracellular domain-6His-GST fusion (human, UniProt P08637 17-208); assay: ELISA, IgG:IgE hexamers on receptor-GST
# T6 construct: also called FcγRIIIA-Phe158; not shown: glutathione S-transferase (GST)
# T6 sequence (P08637 other isoform, or with tags, fused parts or gaps, form in doubt): as the sequence (P08637 other isoform, or with tags, fused parts or gaps) above
# [14] = target: T7, human FcγRIIA-R131 α subunit extracellular domain-6His-GST fusion (human, UniProt P12318 34-217); assay: ELISA, IgG:IgE hexamers on receptor-GST
# T7 construct: also called FcγRIIA-Arg131; not shown: glutathione S-transferase (GST)
# T7 sequence: T1 sequence
# [15] = target: T8, human FcγRIIB α subunit extracellular domain-6His-GST fusion (human, UniProt P31994 43-217); assay: ELISA, IgG:IgE hexamers on receptor-GST
# T8 construct: not shown: glutathione S-transferase (GST)
# T8 sequence: T3 sequence
# [16] = target: T9, human FcRn, biotinylated (human, UniProt P55899 24-297; P61769 21-119, biotinylated (biotin-X-NHS)); assay: ELISA, biotin-FcRn on streptavidin, pH 6.0
# T9 construct: Captured on streptavidin plates; IgG added at pH 6.0; also called neonatal Fc receptor
# T9 sequence (P55899 24-297 limits assumed, chain 1 of 2): as the sequence (P55899 24-297 limits assumed, chain 1 of 2) above
# T9 sequence (P61769 21-119 limits assumed, chain 2 of 2): as the sequence (P61769 21-119 limits assumed, chain 2 of 2) above
# Description: as §1
# [17] = target: T10, human FcγRIIIA-Phe158 α subunit extracellular domain-His6-GST fusion protein (human, UniProt P08637 17-208); assay: ELISA, IgG:IgE hexamer on coated FcγRIIIA-Phe158-GST; value carried over from Table 6
# T10 construct: ELISA-format target; also called FcγRIIIA-F158; not shown: glutathione S-transferase (GST)
# T10 sequence (P08637 other isoform, or with tags, fused parts or gaps, form in doubt): as the sequence (P08637 other isoform, or with tags, fused parts or gaps) above
# [18] = target: T11, human FcγRIIIA-Val158 with human γ-chain on stably transfected CHO cells (human, UniProt P08637 17-254; P30273 19-86); assay: flow cytometry, monomeric IgG on CHO cells with FcγRIIIA-Val158 α- and γ-chains
# T11 construct: whole, on cells; CHO cells stably transfected with the α- and γ-chains of the receptor; also called FcγRIIIA-Val158 (cell-based assay); FcγRIIIA-V158
# T11 sequence (P08637 17-254 F176V, chain 1 of 2): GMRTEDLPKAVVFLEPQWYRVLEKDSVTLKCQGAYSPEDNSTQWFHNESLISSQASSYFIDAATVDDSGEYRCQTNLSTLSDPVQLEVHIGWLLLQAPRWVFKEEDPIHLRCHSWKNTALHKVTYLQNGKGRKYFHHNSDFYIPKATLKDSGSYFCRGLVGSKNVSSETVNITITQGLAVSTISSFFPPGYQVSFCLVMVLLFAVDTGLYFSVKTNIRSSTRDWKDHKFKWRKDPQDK
# T11 sequence (P30273 19-86, chain 2 of 2): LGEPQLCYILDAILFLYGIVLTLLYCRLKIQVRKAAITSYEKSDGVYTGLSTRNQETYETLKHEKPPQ
# [19] = target: T12, human FcγRIIA-H131 α subunit extracellular domain-His6-GST fusion protein (human, UniProt P12318 34-217); assay: ELISA, IgG:IgE hexamer on coated FcγRIIA-H131-GST
# T12 construct: also called FcγRIIA-His131; not shown: glutathione S-transferase (GST)
# T12 sequence: T1 sequence with R134H
# [20] = target: T13, human FcγRIIA-R131 α subunit extracellular domain-His6-GST fusion protein (human, UniProt P12318 34-217); assay: ELISA, IgG:IgE hexamer on coated FcγRIIA-R131-GST; value carried over from Table 6, 7 or 8
# T13 construct: ECD-6His-GST fusion made in 293 cells, coated on the plate; also called FcγRIIA-Arg131; not shown: glutathione S-transferase (GST)
# T13 sequence: T1 sequence
# [21] = target: T13, human FcγRIIA-R131 α subunit …; assay: ELISA, IgG:IgE hexamer on coated FcγRIIA-R131-GST; separate assays run together with the H131 assays
# [22] = target: T10, human FcγRIIIA-Phe158 α subunit …; assay: ELISA format, hexameric complex on FcγRIIIA-Phe158; separate assays run together with the Val158 assays
# [23] = target: T12, human FcγRIIA-H131 α subunit …; assay: ELISA; binding ratio on FcγRIIA-H131 divided by that on FcγRIIA-R131
# [24] = target: T14, human FcγRIIIA-Val158 α subunit extracellular domain-His6-GST fusion protein (human, UniProt P08637 17-208); assay: ELISA format, hexameric complex on FcγRIIIA-Val158
# T14 construct: ELISA-format target; also called FcγRIIIA-V158; not shown: glutathione S-transferase (GST)
# T14 sequence (P08637 other isoform, or with tags, fused parts or gaps, form in doubt): as the sequence (P08637 other isoform, or with tags, fused parts or gaps) above, with F160V counted along it
# [25] = target: T15, human FcγRIIIA-Phe158 with human γ-chain on stably transfected CHO cells (human, UniProt P08637 17-254; P30273 19-86); assay: flow cytometry, monomeric IgG on CHO cells with FcγRIIIA-Phe158 α- and γ-chains
# T15 construct: whole, on cells; CHO cells stably transfected with the α- and γ-chains of the receptor; also called FcγRIIIA-Phe158 (cell-based assay)
# T15 sequence (P08637 17-254, chain 1 of 2): as the sequence (P08637 17-254 F176V, chain 1 of 2) above, with V160F counted along it
# T15 sequence (P30273 19-86, chain 2 of 2): as the sequence (P30273 19-86, chain 2 of 2) above
# Description: CHO cell transfection was carried out using Superfect (Qiagen) according to the manufacturer's instructions. […] Receptor expression levels were determined by staining with anti-FcγRIII monoclonal antibody 3G8 (Medarex). Binding of IgG1 variants was performed by adding monomeric IgG in staining buffer to 5×10^5 cells and incubating in 96 well round-bottom tissue culture plates (Costar, Cambridge, Mass.) at 4° C. for 30 min. Cells were washed three times with staining buffer and IgG binding detected by addition of 1:200 PE-F(ab')_2 fragment of goat anti-human IgG and incubation for 30 min at 4° C. After washing, immunofluorescence staining was analyzed on a FACScan flow cytometer using Cellquest software (Becton Dickinson). Dead cells were excluded from analysis by addition of 1 μg/ml propidium iodide.
# For FcγRIIIA, the selected variants were assayed in the ELISA-format as well as on stable-transfected CHO cell lines expressing the γ-chains (FcγRIIIA-Phe158 or FcγRIIIA-Val158) with the associated human α-chain.
binder,measurement,setting,value
B1,binding result,[1],no binding
same,binding result,[2],no binding
same,binding result,[3],no binding
B2,binding result,[1],no binding
same,binding result,[2],no binding
same,binding result,[3],no binding
B3,binding result,[1],no binding
same,binding result,[2],no binding
same,binding result,[3],no binding
B4,reduction in binding against native IgG1,[1],30%
same,reduction in binding against native IgG1,[3],40%
B5,percentage of the wild type,[4],109%
same,percentage of the wild type,[5],90%
same,percentage of the wild type,[6],101%
same,ratio to native IgG1,[7],0.98 ratio
same,ratio to native IgG1,[8],1.17 ratio
same,ratio to native IgG1,[9],0.62 ratio
same,ratio to native IgG1,[10],1.28 ratio
same,percentage of the wild type,[11],90%
same,ratio to native IgG1,[12],0.94 ratio
B6,reduction in binding against native IgG1,[1],40%
same,reduction in binding against native IgG1,[3],40%
same,ratio to native IgG1,[7],1.02 ratio
same,ratio to native IgG1,[8],0.64 ratio
same,ratio to native IgG1,[9],0.82 ratio
same,ratio to native IgG1,[10],0.58 ratio
same,ratio to native IgG1,[12],1 ratio
B7,percentage of the wild type,[4],111%
same,percentage of the wild type,[5],85%
same,ratio to native IgG1,[7],0.8 ratio
same,ratio to native IgG1,[8],0.08 ratio
same,ratio to native IgG1,[9],0.21 ratio
same,percentage of the wild type,[11],104%
same,ratio to native IgG1,[12],0.48 ratio
B8,percentage of the wild type,[4],86%
same,percentage of the wild type,[5],73%
same,percentage of the wild type,[6],58%
same,ratio to native IgG1,[7],0.85 ratio
same,ratio to native IgG1,[8],1.29 ratio
same,ratio to native IgG1,[9],1.08 ratio
same,ratio to native IgG1,[10],1.34 ratio
same,percentage of the wild type,[11],74%
same,ratio to native IgG1,[12],1.01 ratio
B9,binding result,[1],no binding
same,binding result,[2],no binding
same,binding result,[3],no binding
B10,ratio to native IgG1,[13],0.92
same,ratio to native IgG1,[14],0.98
same,ratio to native IgG1,[15],1.04
same,ratio to native IgG1,[16],0.9
B11,ratio to native IgG1,[13],1.02
same,ratio to native IgG1,[14],1.02
same,ratio to native IgG1,[15],1.05
same,ratio to native IgG1,[16],8
B12,ratio of binding of the variant to that of native IgG1,[17],1.34 ratio (variant/native IgG1)
same,ratio of binding of the variant to that of native IgG1,[18],1.18 ratio (variant/native IgG1)
same,ratio of binding of the variant to that of native IgG1,[19],0.24 ratio (variant/native IgG1)
same,ratio of binding of the variant to that of native IgG1,[20],0.4 ratio (variant/native IgG1)
same,ratio of binding of the variant to that of native IgG1,[21],0.26 ratio (variant/native IgG1)
same,ratio of binding of the variant to that of native IgG1,[22],1.49 ratio (variant/native IgG1)
same,H131/R131,[23],0.93 ratio (H131 value/R131 value)
same,ratio of binding of the variant to that of native IgG1,[24],1.07 ratio (variant/native IgG1)
same,ratio of binding of the variant to that of native IgG1,[25],1.85 ratio (variant/native IgG1)
